Assay results as given in patent US11389509B1, “Methods for treatment of social dysfunction neurological disorders and seizures” (University of Virginia Patent Foundation, priority 2017, dated 2022).
Entries after “also recorded” stand apart in the source; their conditions may differ.

B1: IFN-γ: recombinant interferon-gamma cytokine (eBioscience), injected into the CSF via cisterna magna (protein, UniProt P01580 23-155, looked up)
Interferon gamma: HGTVIESLESLNNYFNSSGIDVEEKSLFLDIWRNWQKDGDMKILQSQIISFYLRLFEVLKDNQAISNNISVIESHLITTFFSNSKAKKDAFMSIAKFEVNNPQVQRQAFNELIRVVHQLLPESSLRKRKRSRC

What was measured:
[1] = system: mice; assay: Three-chamber sociability assay; format: in vivo, mouse; details: for social deficits / social behavior / social preference / social deficits: Ifng−/− mice; for social deficits / social behavior: diazepam 1.25 mg/kg i.p. 30 minutes prior to testing; for social preference / social deficits: single CSF (i.c.m.) injection of IFN-γ 20 ng, tested 24 hours post-injection
Experimental: The three-chamber sociability test was conducted as previously described^31. Briefly, mice were transported to the testing room and habituated for at least one hour. The room was maintained in dim light and a white noise generator used to mitigate any unforeseen noises. Test boxes were fabricated, in-house, by a machine shop. Test mice were placed in the center chamber with the two outer chambers containing empty wire cages (Spectrum Diversified Designs) and allowed to explore for ten minutes (habituation phase). After the habituation phase, mice were return to the center chamber. A novel mouse (an 8-10 week old male C57BL/6J˜18-22 g) was placed under one cup and an object placed under the other. Prior to testing, the novel mouse was habituated to the cup by being placed under the cup for 10 minutes, 3 times a day for 5 days. Mice were allowed to explore for an additional ten minutes (social phase). A video tracking system (CleverSys) was used to quantify the time spent around each target. For 3-chamber experiments comparing social behavior between wild-type and SCID mice, data collected using males and females were combined because no significant effects were found between genders.
A rat monoclonal antibody to murine VLA4 (clone PS/2) was affinity purified from hybridoma supernatants and was used with the kind permission of Dr. Klaus Ley (La Jolla Institute of Allergy and Immunology, San Diego, Calif.). Mice were given two separate injections (i.p.; 0.2 mg in saline per mouse), four days apart, of either anti-VLA4 or rat anti-HRP for control (clone HRPN; BioXcell), then tested twenty-four hours post final injection.
(§1) Mice were anaesthetized with a ketamine/xylazine [ketamine (100 mg/kg) and xylazine (10 mg/kg)] injection (i.p.) or isoflurane (2%), then placed into a stereotaxic frame with the head at an approximately 45° angle. The skin above cisterna magna was cleaned and sanitize before a 1 cm incision was made. The underlying muscles were separated with forceps, retracted, and a small Hamilton syringe (33 G) was used to slowly inject 1 uL of saline or IFN-γ (20 ng; eBioscience) into the cisterna magna (i.c.m.). After injection the syringe was held in place for 5 minutes to avoid back-flow of CSF. After the syringe was removed, muscles were put back in place and skin was sutured. Mice were placed on a heating pad and given ketoprofen and baytril for recovery.
Diazepam (1.25 mg/kg) was delivered i.p. for 30 minutes prior to testing for social behavior.

[2] = system: Ifng−/− mice; assay: Resting-state fMRI functional connectivity of PFC/insular nodes; format: in vivo, mouse; details: single injection of recombinant IFN-γ into the CSF
Text: The protocol for rsfMRI was adapted from Zhan et al.^32. Mice were maintained under light anesthesia with (1-1.25%) isoflurane and images were acquired on a 7.0 Tesla MRI Clinscan system (Bruker, Etlingen, Germany) using a 30-mm inner-diameter mouse whole-body radiofrequency coil. High-resolution structural images were acquired by collecting 16×0.7 mm thick coronal slices using TR/TE 5,500/65 ms and an […]. A BOLD rsfMRI time series of 16×0.7 mm thick coronal slices were collected using TR/TE 4,000/17 ms and a 60o flip angle. For analysis, a structural template^33 was custom labeled using “The Mouse Brain” by Paxinos and Franklin as reference (FIGS. 6A-6C). The non-rigid transformation between the template and each individual mouse was estimated using the open source Advanced Normalization Tools (ANTs) package^34 that was then used to propagate the regional labels to each subject. […] The correlation matrix was determined from the clean fMRI data using the regions labels. […] When comparing networks from multiple sample groups, the threshold was determined by calculating the maximum threshold that leaves one of the networks connected (i.e., it is possible to reach any node in the network from any other node). […]

[3] = system: layer 2/3 prefrontal cortical neurons; assay: Whole-cell patch-clamp of tonic inhibitory currents in acute brain slices; format: cell-based, mouse
Experimental: Visualized whole-cell patch-clamp recordings were performed on layer 2/3 prefrontal cortical neurons prepared from acute brain slices (adult) using the protective recovery method^42. Recordings were performed in 34° C. artificial cerebrospinal fluid (ACSF) containing (in mM) 131.5 NaCl, 25 NaHCO3, 12 D-glucose, 2.5 KCl, 1.25 NaH2PO4, 2 CaCl2, and 1 MgCl2. ACSF also contained 3 mM kynurenic acid to block synaptic excitation and […] NO-711 to enhance tonic inhibition^43. Slices were incubated in this ACSF for 5-10 minutes prior to placement in the recording chamber. The patch pipette solution with elevated chloride contained (in mM) 140 CsCl, 4 NaCl, 1 MgCl2, 10 HEPES, 0.05 EGTA, 2 Mg-ATP, and 0.4 Mg-GTP^43. Once recordings equilibrated, baseline holding current in ACSF was measured for 3.5 minutes, after which ACSF containing IFN-γ (20 pg/mL) was applied for 8.5 minutes and then washed. Data presented show the mean holding current during the last minute of control (ACSF) and drug (ACSF+IFN-γ) conditions.

[4] = system: mice; assay: PTZ induced seizures; format: in vivo, mouse; details: IFN-γ i.c.m. 24 hours prior to PTZ 40 mg/kg i.p.
Experimental: IFN-γ was injected (i.c.m.) into the CSF through the cisterna magna (i.c.m.), as described above, 24 hours prior to inducing seizures. Control mice were injected with the same volume of saline. To induce seizures, mice were injected with PTZ (40 mg/kg; i.p.). After injection, mice were placed into an empty housing cage and recorded for video analysis. Seizures were analyzed by a blinded observer using a behavior scoring system previously published^41.

[5] = system: layer I neocortical neurons; assay: c-fos immunohistochemistry in PFC after CSF injection; format: in vivo, mouse; details: IFN-γ injected into the CSF (i.c.m.) 2 hours prior to sacrificing
Experimental: Mice were sacrificed under Euthasol then transcardially perfused with PBS with heparin. Brains were removed and drop fixed in 4% PFA for 48 hours. After fixation, brains were washed with PBS, cryoprotected with 30% sucrose, then frozen in O.C.T. compound (Sakura Finetek) and sliced ([…]) with a cryostat (Leica). Free-floating sections were maintained in PBS+Azide (0.02%) until further processing. Immunohistochemistry for c-fos (1:1000 dilution; Millipore) on free-floating sections was performed as previously described^39.
as §1

| Molecule | social deficits / social behavior [1] | social deficits / social behavior ([1]; listed as Diazepam) | social deficits ([1]; Ifngr1−/− mice, IFN-γ injected into the CSF) | social preference / social deficits [1] | social preference / social deficits ([1]; listed as recombinant IFN-γ) | hyper-connectivity in the PFC (connections of local PFC/insular nodes) ([2]; Jennrich test P=0.02) | hyper-connectivity in the PFC (connections of local PFC/insular nodes) ([2]; Jennrich test P=0.02, listed as recombinant IFN-γ) | tonic inhibition ([3]; VgatCre::Ifngr1fl/fl line, Cre− mice) | tonic inhibitory current ([3]; VgatCre::Ifngr1 fl/fl mice (IFN-γ receptor deleted from inhibitory neurons)) | tonic GABAergic inhibitory current (holding current) ([3]; slices from wild-type mice, IFN-γ 20 pg/mL in ACSF for 8.5 minutes) | latency to reach each seizure stage / seizure onset [4] | maximum severity of seizures [4] | susceptibility to PTZ induced seizures [4] | c-fos+ cells in layer I of the PFC [5] | c-fos+ cells in layer I of the PFC ([5]; listed as recombinant IFN-γ) |
| --- | --- | --- | --- | --- | --- | --- | --- | --- | --- | --- | --- | --- | --- | --- | --- |
| CN1C(=O)CN=C(c2ccccc2)c2cc(Cl)ccc21 [diazepam, reference compound] | rescued social deficits | successfully rescued social behavior |  |  |  |  |  |  |  |  |  |  |  |  |  |
| B1 |  |  | not rescued | sufficient to rescue social deficits | sufficient to restore their social preference | connections were reduced | reduce overall hyper-connectivity in the PFC | increased tonic inhibition | prevented IFN-γ from augmenting tonic inhibitory current | increases tonic GABAergic inhibitory current; also recorded: augmented tonic current | increased latency to reach each seizure stage; also recorded: delayed seizure onset | reduced the maximum severity of seizures; also recorded: lowered seizure severity | less susceptible to PTZ induced seizures | increased the number of c-fos+ cells in Layer I of the PFC | activated layer I neocortical neurons |
